Measured values as given in patent US9340577B2, “HLA binding motifs and peptides and their uses” (priority 1992, dated 2016).
pIC50: −log10 of the molar value. Read-outs that look alike come from different tables or passages of the source. No end group written: not given here.

Columns and labels:
[1] = target: HLA-A*0201 (HLA-A2.1) (Homo sapiens, UniProt P04439, D140Y/D185E/D98H/E176V/E277Q/G131W/G231S/I119V/I121R/I166T/I218V/L300P/L318F/N151K/N90K/P208A/P217A/Q86G/Q94H/R138H/R169H/T345S); assay: biochemical; type: binding
[2] = target: A2.1 HLA molecules (Homo sapiens, UniProt P04439, D140Y/D185E/D98H/E176V/E277Q/G131W/G231S/I119V/I121R/I166T/I218V/L300P/L318F/N151K/N90K/P208A/P217A/Q86G/Q94H/R138H/R169H/T345S); type: binding; set-up: A*0201 / A2.1 Binding / A2 Bind. / A2 / A2.1 (binding capacity): scale not given here
[3] = target: DRB5*0101 (Homo sapiens, UniProt P01903+Q30154); assay: biochemical
[4] = target: HLA-A11 (A*1101) (Homo sapiens, UniProt P04439, A114D/D185E/E176A/F33Y/L180Q/S129P/T187R); assay: biochemical; type: binding; set-up: A11: unit not given here
[5] = target: HLA-A3.2 (A*0301) (Homo sapiens, UniProt P04439); assay: biochemical; type: binding; conditions: Table 164, MAGE peptides; binding value to HLA-A3.2, no unit given

VMIAMEGGHV
binding to HLA-A2.1 (column 3; no allele head shown for these rows) [1]: 0.053
A2 Bind. [2]: 0.0530

KVADLVGFLLL
binding to HLA-A2.1 (column 3; no allele head shown for these rows) [1]: 0.020
A2 Bind. [2]: 0.0200

LMVTVYYGV
pIC50 [1]: 8.48
A2 [2]: 0.4400

KMVELVHFLLL
binding to HLA-A2.1 (column 3; no allele head shown for these rows) [1]: 0.67
A2 Bind. [2]: 0.6700

HLYIFATCLGL
binding to HLA-A2.1 (column 3; no allele head shown for these rows) [1]: 0.041
A2 Bind. [2]: 0.0410

WEELSVMEV
binding to HLA-A2.1 (column 3; no allele head shown for these rows) [1]: 0
A2.1 relative binding (ratio of binding of test peptide relative to standard peptide) [2]: 0

LMLGTLEEV
binding to HLA-A2.1 (column 3; no allele head shown for these rows) [1]: 0.13
A2 Bind. [2]: 0.1300

GLSYDGLLG
binding to HLA-A2.1 (column 3; no allele head shown for these rows) [1]: 0
A2.1 relative binding (ratio of binding of test peptide relative to standard peptide) [2]: 0

SMHCKPEEV
binding to HLA-A2.1 (column 3; no allele head shown for these rows) [1]: 0.018
A2 Bind. [2]: 0.0180

AKSTWYGKPTGAGPKDNGGA [Peptide 620.03]
pIC50 ([3]; DRB5*0101): 5.00

YLQLVFGIEV
binding to HLA-A2.1 (column 3; no allele head shown for these rows) [1]: 0.37
A2 Bind. [2]: 0.3700

AMGLVCVQV
binding to HLA-A2.1 (column 3; no allele head shown for these rows) [1]: 0.012
A2 Bind. [2]: 0.0120

ALGLVCVQA
A2.1 [1]: 0.015
A2 Bind. [2]: 0.0150
A2.1 relative binding (ratio of binding of test peptide relative to standard peptide) [2]: 0.015
A11 [4]: <0.0002
A3.2 [5]: <0.0002

SLHCKPEEA
A2.1 [1]: 0.013
A2 Bind. [2]: 0.0130
A2.1 relative binding (ratio of binding of test peptide relative to standard peptide) [2]: 0.013
A11 [4]: 0
A3.2 [5]: <0.0002

FLGLSPTVWV
A2.1 relative binding (ratio of binding of test peptide relative to standard peptide) [2]: 0.030

WMELSVMEV [listing 1 of 2 here]
A2.1 relative binding (ratio of binding of test peptide relative to standard peptide) [2]: 0.041

LLGDNQIMV
binding to HLA-A2.1 (column 3; no allele head shown for these rows) [1]: 0.043
A2 Bind. [2]: 0.0430

CC[C@H](C)[C@H](NC(=O)[C@H](CC(N)=O)NC(=O)[C@H](C)NC(=O)[C@H](CC(=O)O)NC(=O)CNC(=O)[C@H](CCCCN)NC(=O)[C@H](CC(C)C)NC(=O)[C@H](Cc1c[nH]cn1)NC(=O)[C@@H](NC(=O)[C@@H](NC(=O)[C@@H]1CCCN1C(=O)[C@@H](NC(=O)[C@@H](N)[C@@H](C)O)[C@@H](C)O)[C@@H](C)CC)[C@@H](C)CC)C(=O)N[C@@H](CC(C)C)C(=O)N[C@@H](CCCCN)C(=O)O [Peptide 1601.25]
pIC50 ([3]; Binding affinity DRB5 *0101): < 4.70

TISGVLWQV [Peptide F124.08]
A*0201 [2]: 0.1400

PLAYERDKL
A2.1 Binding [2]: 0

RLTGGVFLV
A2 Bind. [2]: 0.1600

YLLLYFSPV
A2 Bind. [2]: 0.7500
A2.1 Binding [2]: 0.75

KMFBQLAKV [Peptide 34.014]
A*0201 [2]: 0.0980

RMLTIPQSV
A2 Bind. [2]: 0.0580

LLEDWGPCA
A2 Bind. [2]: 0.0180

FMLLLCLIFL [listing 1 of 2 here]
A2.1 relative binding (ratio of binding of test peptide relative to standard peptide) ([2]; standard […], IC50 5.0, IC50 = 5.0 divided by ratio): 0.045

SILSPFLPLL
A2.1 relative binding (ratio of binding of test peptide relative to standard peptide) [2]: 0.0025

RVSWPKFAV
A2.1 relative binding (ratio of binding of test peptide relative to standard peptide) [2]: 0.0028

TLRMSSKAV
A2.1 Binding [2]: 0.0001

PMEAVRHPL
A2.1 Binding [2]: 0

TMFEALP HI (TMFEALPHI)
A2 Bind. [2]: 0.2000

NLEVIHDAL
A2.1 Binding [2]: 0

ALGRNSFEV
A2 Bind. [2]: 0.0570

LLGRNSFAV
A2 Bind. [2]: 0.0420

ELKKVSVL
A2.1 Binding [2]: 0

TLMSIVSSL
A2 Bind. [2]: 0.2000

WMELSVMEV [listing 2 of 2 here]
binding to HLA-A2.1 (column 3; no allele head shown for these rows) [1]: 0.041
A2 Bind. [2]: 0.0410

LLWWITILL
A2 Bind. [2]: 0.4900
A2.1 Binding [2]: 0.49

LLCLGWLWGM
A2 Bind. [2]: 0.0220

LLWKGEGAVV
A2 [2]: 0.0360

LLGDNQIMP
binding to HLA-A2.1 (column 3; no allele head shown for these rows) [1]: 0.0001
A2.1 relative binding (ratio of binding of test peptide relative to standard peptide) [2]: 0.0001

ALMPLYASI
A2 Bind. [2]: 0.0760

LMFSTSAYL
A2 Bind. [2]: 0.3600

YLPSALNPV
A2.1 relative binding (ratio of binding of test peptide relative to standard peptide) [2]: 0.32

FMLLLCLIFL [listing 2 of 2 here]
A2 Bind. [2]: 0.0450

QMMPKTGFLV
binding to HLA-A2.1 (column 3; no allele head shown for these rows) [1]: 0.050
A2 Bind. [2]: 0.0500

FLPSDFFPSI
A2 Bind. [2]: 0.2100

PLRVTPSDL
A2.1 Binding [2]: 0

RLLTSLFFL
A2 Bind. [2]: 0.3400

YLCCGITLL
A2 Bind. [2]: 0.0210
A2.1 Binding [2]: 0.021

WLLRGTSFV
A2.1 relative binding (ratio of binding of test peptide relative to standard peptide) [2]: 0.10

RLQPNVPLV
A2 Bind. [2]: 0.0480
A2.1 Binding [2]: 0.048

1.0187 (HLLVGSSBL) [Peptide 1.0187]
A2.1 Binding [2]: 0.0018

FMWTYLVTL
A2 Bind. [2]: 0.6800

LLALLSCLTV [Peptide F127.03]
A*0201 [2]: 0.0240

RLPDRVHFA
A2 Bind. [2]: 0.0940

GTLEEVPTA
binding to HLA-A2.1 (column 3; no allele head shown for these rows) [1]: 0.013
A2 Bind. [2]: 0.0130

GLSYDGLLV
A2.1 relative binding (ratio of binding of test peptide relative to standard peptide) [2]: 0.0047

YEFLWGPRA
binding to HLA-A2.1 (column 3; no allele head shown for these rows) [1]: 0
A2.1 relative binding (ratio of binding of test peptide relative to standard peptide) [2]: 0

WGLLGFAA
A2.1 relative binding (ratio of binding of test peptide relative to standard peptide) [2]: 0.0009

1.0092 (TLTCGFACL) [Peptide 1.0092]
A2.1 Binding [2]: 0.0004

TAEYGDKWLDAKSTWYGKPT [Peptide 620.02]
pIC50 ([3]; DRB5*0101): 5.00

AMSRNLFRV
A2 Bind. [2]: 0.1500
A2.1 Binding [2]: 0.15
